Assay results published in patent publication US10711248B2, “Device and method for standardizing myoblast differentiation into myotubes” (Cytoo, priority 2013, dated 2020).

B1: Wnt4: Wnt molecule known to stimulate AChR clustering in mice (protein, UniProt P56705 23-351, looked up)
Protein Wnt-4: SNWLYLAKLSSVGSISEEETCEKLKGLIQRQVQMCKRNLEVMDSVRRGAQLAIEECQYQFRNRRWNCSTLDSLPVFGKVVTQGTREAAFVYAISSAGVAFAVTRACSSGELEKCGCDRTVHGVSPQGFQWSGCSDNIAYGVAFSQSFVDVRERSKGASSSRALMNLHNNEAGRKAILTHMRVECKCHGVSGSCEVKTCWRAVPPFRQVGHALKEKFDGATEVEPRRVGSSRALVPRNAQFKPHTDEDLVYLEPSPDFCEQDMRSGVLGTRGRTCNKTSKAIDGCELLCCGRGFHTAQVELAERCSCKFHWCCFVKCRQCQRLVELHTCR
B2: Wnt3a: Wnt molecule known to inhibit AChR clustering in mice (protein, UniProt P56704 19-352, looked up)
Protein Wnt-3a: SYPIWWSLAVGPQYSSLGSQPILCASIPGLVPKQLRFCRNYVEIMPSVAEGIKIGIQECQHQFRGRRWNCTTVHDSLAIFGPVLDKATRESAFVHAIASAGVAFAVTRSCAEGTAAICGCSSRHQGSPGKGWKWGGCSEDIEFGGMVSREFADARENRPDARSAMNRHNNEAGRQAIASHMHLKCKCHGLSGSCEVKTCWWSQPDFRAIGDFLKDKYDSASEMVVEKHRESRGWVETLRPRYTYFKVPTERDLVYYEASPNFCEPNPETGSFGTRDRTCNVSSHGIDGCDLLCCGRGHNARAERRREKCRCVFHWCCYVSCQECTRVYDVHTCK

System: acetylcholine receptors (AChR) clustering in myotubes derived from human primary cells
Experiment: Acetylcholine receptor clustering in primary human myotubes cultured on micropatterns (TMR-Bungarotoxin probe)
Type: cell-based
Details: FIG. 8A/8B
Procedure: FIG. 8B is a quantification of the regulation of cluster formation through agrin and Wnt signaling;
C2C12 mouse or primary human myoblasts (HSMM, Lonza) were cultured on fibronectin coated micropatterns within growth medium (DMEM, 20% FBS, 0.5% P/S, or Lonza SkGM™-2 cell culture Kit respectively) during 24 hours. Then both cell types were cultured within differentiation medium (DMEM/F12, 2% Horse Serum, 0.5% P/S) during 5 to 11 days for HSMM and C2C12 respectively. Differentiation medium were changed every 2 days. Cells were fixed and an immunostaining was realized against myosin heavy chain (in green in a color image—in light grey in the appended black&white figures), actin (in red in a color image—in medium grey in the appended black&white figures) and nuclei (in blue in a color image—in dark grey in the appended black&white figures). Images were acquired using an epifluorescence microscope (DMI6000, Leica).

| Molecule | Effect on AChR clustering / cluster formation |
| --- | --- |
| agrin: treatment inducing acetylcholine receptor clustering in myotubes [reference compound] | large clustering |
| B1 | stimulate |
| B2 | inhibit |
